Target: the molecule itself
Assay: SEC

B1: soluble transhydrogenase from E. coli (EcSTH), recombinant, with N-terminal Hisx6-tag and C-terminal FLAG-tag (enzyme, Escherichia coli, UniProt P27306 1-466, looked up)
chain: MPHSYDYDAIVIGSGPGGEGAAMGLVKQGARVAVIERYQNVGGGCTHWGTIPSKALRHAVSRIIEFNQNPLYSDHSRLLRSSFADILNHADNVINQQTRMRQGFYERNHCEILQGNARFVDEHTLALDCPDGSVETLTAEKFVIACGSRPYHPTDVDFTHPRIYDSDSILSMHHEPRHVLIYGAGVIGCEYASIFRGMDVKVDLINTRDRLLAFLDQEMSDSLSYHFWNSGVVIRHNEEYEKIEGCDDGVIMHLKSGKKLKADCLLYANGRTGNTDSLALQNIGLETDSRGQLKVNSMYQTAQPHVYAVGDVIGYPSLASAAYDQGRIAAQALVKGEATAHLIEDIPTGIYTIPEISSVGKTEQQLTAMKVPYEVGRAQFKHLARAQIVGMNVGTLKILFHRETKEILGIHCFGERAAEIIHIGQAIMEQKGGGNTIEYFVNTTFNYPTMAEAYRVAALNGLNRLF
- stoichiometry N: 12

— article PMC11045668 (Nature chemical biology, 2023)
